Assay results reported in PMC4756369 (2016).

What was measured:
[1] = target: F-actin (skeletal muscle, phalloidin stabilized) (Oryctolagus cuniculus, UniProt P68135); test: co-sedimentation
[2] = target: F-actin (skeletal muscle) (Oryctolagus cuniculus, UniProt P68135); test: co-sedimentation

Kd [1]	Kd [2]	Binder
0.0755 µM	–	β-III-spectrin ABD 1-284 (protein) MSSTLSPTDFDSLEIQGQYSDINNRWDLPDSDWDNDSSSARLFERSRIKALADEREAVQKKTFTKWVNSHLARVTCRVGDLYSDLRDGRNLLRLLEVLSGEILPKPTKGRMRIHCLENVDKALQFLKEQKVHLENMGSHDIVDGNHRLTLGLVWTIILRFQIQDISVETEDNKEKKSAKDALLLWCQMKTAGYPNVNVHNFTTSWRDGLAFNAIVHKHRPDLLDFESLKKCNAHYNLQNAFNLAEKELGLTKPLDPEDVNVDQPDEKSIITYVATYYHYFSKMK
–	75.8 µM	β-III-spectrin ABD 1-284 (protein) MSSTLSPTDFDSLEIQGQYSDINNRWDLPDSDWDNDSSSARLFERSRIKALADEREAVQKKTFTKWVNSHLARVTCRVGDLYSDLRDGRNLLRLLEVLSGEILPKPTKGRMRIHCLENVDKALQFLKEQKVHLENMGSHDIVDGNHRLTLGLVWTIILRFQIQDISVETEDNKEKKSAKDALLLWCQMKTAGYPNVNVHNFTTSWRDGLAFNAIVHKHRPDLLDFESLKKCNAHYNLQNAFNLAEKELGLTKLLDPEDVNVDQPDEKSIITYVATYYHYFSKMK
